Test results: the DeepSol protein solubility set

Test: soluble on expression in E. coli; label from the status in PepcDB or PDB records

Sequence	soluble on expression in E. coli
MGSDKIHHHHHHMSRIVNVKLSLKRYEYEKPFHITGSVSSESRNVEVEIVLESGVKGYGEASPSFRVNGERVEALLAIENAVREMITGIDVRNYARIFEITDRLFGFPSLKAAVQFATLDALSQELGTQVCYLLGGKRDEIETDKTVGIDTVENRVKEAKKIFEEGFRVIKIKVGENLKEDIEAVEEIAKVTRGAKYIVDANMGYTQKEAVEFARAVYQKGIDIAVYEQPVRREDIEGLKFVRFHSPFPVAADESARTKFDVMRLVKEEAVDYVNIKLMKSGISDALAIVEIAESSGLKLMIGCMGESSLGINQSVHFALGTGAFEFHDLDSHLMLKEEVFRGKFIQDGPRMRVKDQ	not soluble
MGSDKIHHHHHHMSSCGKNENPQEMNRRKFLKVFGGGAVASSAALYGCAPKNEPGAAVALGEVPTDKMTYRQHPTNGDKVSILGYGCMRWPLKQGSDGKDQIDQEAVNRLVDYAIEHGVNYFDTSPVYVQGMSEKATGIALARHPRNSYYLATKLSNFQNYTRENSLAMYRQSFRDLQTDYLDYYLLHSIGGGNGIELFNDRYINNGMLDFLVKEREAGRIRNLGWSFHGDVKVFDYVLDMGVKWDFVQIQLNYLDWKHASGRNVNADYLYGELEKRGIPAVIMEPLLGGRLSNVPDHIVARLKQQRPENSVASWAFRFAGSPDGVLTVLSGMTYMEHLQDNIRTYSPLIPVTDEEKDFLEETAQLMMKYPTIPCNDCKYCMPCPYALDIPGILLHYNKCVNEGNVPKSAQDENYAKARRAFLVGYDRSVPKLRQANHCTGCEQCNPHCPQGIDIPKEMQRIDKFVEELKVNG	not soluble
MGSDKIHHHHHHMSSILRLDRLRQFIGELATLLDSRPDESTLLAQAHPLLAELVHQDDWLPEDCARPDPQRYQQYLLHVDSRQRFSVVSFVWGPGQITPVHDHRVWGLIGMLRGAEYSQPYAFDAGGRPHPSGARRRLEPGEVEALSPRIGDVHQVSNAFSDRTSISIHVYGANIGAVRRAVFSAEGEEKPFISGYSNSRLPNIWDLSKENPA	not soluble
MGSDKIHHHHHHMSSKAEKDIKWGIAPIGWRNDDIPSIGKDNNLQQLLSDIVVAGFQGTEVGGFFPGPEKLNYELKLRNLEIAGQWFSSYIIRDGIEKASEAFEKHCQYLKAINAPVAVVSEQTYTIQRSDTANIFKDKPYFTDKEWDEVCKGLNHYGEIAAKYGLKVAYHHHMGTGIQTKEETDRLMANTDPKLVGLLYDTGHIAVSDGDYMALLNAHIDRVVHVHFKDVRRSKEEECRAKGLTFQGSFLNGMFTVPGDGDLDFKPVYDKLIANNYKGWIVVEAEQDPSKANPLEMAQIAHRYIKQHLIEN	not soluble
MGSDKIHHHHHHMSSKRLVIVGGGITGLAAAYYAERAFPDLNITLLEAGERLGGKVATYREDGFTIERGPDSYVARKHILTDLIEAIGLGEKLVRNNTSQAFILDTGGLHPIPKGAVMGIPTDLDLFRQTTLLTEEEKQEVADLLLHPSDSLRIPEQDIPLGEYLRPRLGDALVEKLIEPLLSGIYAGNIDQMSTFATYPQFVANEQKAGSLFEGMRLMRPLDQLPQTPQTTIKATGQFLSLETGLESLIERLEEVLERSEIRLETPLLAISREDGRYRLKTDHGPEYADYVLLTIPHPQVVQLLPDAHLPELEQLTTHSTATVTMIFDQQQSLPIEGTGFVVNRRAPYSITACTAIDQKWNHSAPDHTVLRAFVGRPGNDHLVHESDEVLQQAVLQDLEKICGRTLEPKQVIISRLMDGLPAYTVGHADRIQRVREEVLAQYPGIYLAGLAYDGVGLPDCVASAKTMIESIELEQSHTDESVNET	not soluble
MGSDKIHHHHHHMSSSQQIAKNARKAGNILKTISNEGRSDILYKIHDALKANAHAIEEANKIDLAVAKETGLADSLLKRLDLFKGDKFEVMLQGIKDVAELEDPVGKVKMARELDDGLTLYQVTAPVGVLLVIFESRPEVIANITALSIKSGNAAILKGGKESVNTFREMAKIVNDTIAQFQSETGVPVGSVQLIETRQDVSDLLDQDEYIDLVVPRGSNALVRKIKDTTKIPVLGHADGICSIYLDEDADLIKAKRISLDAKTNYPAGCNAMETLLINPKFSKWWEVLENLTLEGGVTIHATKDLKTAYFDKLNELGKLTEAIQCKTVDADEEQDFDKEFLSLDLAAKFVTSTESAIQHINTHSSRHTDAIVTENKANAEKFMKGVDSSGVYWNASTRFADGFRYGFGAEVGISTSKIHARGPVGLDGLVSYQYQIRG	not soluble
MGSDKIHHHHHHMSTEHQLLVGLLKKLKDDALVLPTLPEVAMRVQEVVSRQDSSLKQVADIIGQDAAISARIIKVANSALYSRGNKAESINAAVSRIGLVQIKSITTSVAMEQLFISTNEMVWEVMDEVWKTSIEVTASSCAMLEMYNKRHPTKKLDRDTLTLAGLVHNIGALPVLTEAEVHPELFGRIDDLRSLVRKMQGPIGRAVLKTWDFAPEVMEVVERWADLHYLPEKVTYLDFIRSAAFYTGELRAGEELEERLGVFAQRGLPVTPEDLASDEFINMYHSIMQSYE	not soluble
MGSDKIHHHHHHMSTLLRQHAEQQFAEELHELKQNETNPVPENWEMSPQSVVTYLMGGKLKNGFEVSPKYIGNRRLMEIAVATLVTDRALLLYGLPGTAKSWVSEHIAAAISGDSTLIVQGTAGTGEEAIRYGWNYARLLAEGPSVGALVQTPVMKAMQEGKIGRIEELTRIGSDVQDTLITILSEKTLPIPELNTEVQAIRGFNIIATANNRDKGVNDLSSALKRRFNTVILPLPDSIDEEIDIVRRRVESFEKVMQLPAEKPALEEIRRVVTIFRELRQGATADGKTKLKTPSGTLSTAEAISVVNNGLAMAGYFGDGEIHAEDLVSGILGAVVKDPVQDKVVWQEYMETVVKNRDGWKDIYRASRDMI	not soluble
MGSDKIHHHHHHMSTPGSTPPPSVADQPHPLPLANGHPISGATADAAAQWLTLLMSDEMTDSDYQCWQQWRAAHPDHERAWQHIEAVTARFRELPSTAAYKSLSPLTNPVSAGKPGSPGRRKAMGTLLWLGTAGVGSMLVSRTQIWQQTVADYRTGTGEQRAIYLADGTHIMLNTYSAIDVAFDAQHRTIRLITGDILITTHPVHTPISDPRPFIVETAEGRIRALGTRFTVSQRKGRTHVAVLEHAVEVTPAAAPDRQYILPAGQQLSFTRHTLNNATTLDKQTTGWTQGQIIADNIRLGDFITDLGRYRTGLLRCDPAVAELRLSGVFPLDDTDRILETLPSVLPVRVRLRTRYWVIVEAAS	not soluble
MGSDKIHHHHHHMSTSPLYYAKKTQELCALSDVYITLNRMLSSDGCSLEQLADAIAYEPAIAASILKIANSAMFSMPRKIDSLSKALTILGIKEVKKLVNAYGITAAFSNLDPNVVDMDKFWEISVDCALICQYFAKNKQIPNTDNIFLSGLFHNLGMLAMISSEPAKVRYCEGYDRDETPWFRQNQVFGFTFADCTTELLKLWDLPDSIIQPIAEFNGAEHEPLPDNSKLLYMASRLAVINADPGLYAKEALIDKAILDDLGIESSDMSQSLEYCNEQAMELLATFPIQGRKSSE	not soluble
MGSDKIHHHHHHMSVLIECRDLSHSYGEKTVLHDLSFTVRQGGVFGLLGKNGAGKSTTINILMGFLRPGSGSCRVLGEPSHALSPHARRRIGLLHEGFIQYDFMTIAELERYYAAFYPLWDRSVFFDLTDRLQVPYSRRISCLSCGQRSQVVLGLIMAQQPQLMILDDYSMGLDVGYRRLFIDFLREYVAKRGTTVLLTSHVVQELDKIVDNMIVLREGRVAVSGSKKEFMDSFRCYSFARSPASDALHADTVLENVEHMGSVTTVYAFADGEPVARHLRDRGVDPQNMTPVPMDFEDAFVGLTGKY	not soluble
MGSDKIHHHHHHMSYKVINVITAIDYIEEHLSEKLDLDIVANAVHYSKYHLHRTFTTSVGLTMHDYIKRRKLTEAAKLLVFSKKPIIEIALIAGYESQQAFTSIFKAMYKKSPNKYRKEQEFYPLQLRFVLKKDNLFLKNVLELEKEIKLASMSDIPLWMNLVRLVIDGFPNLQEEEYIYQLEQYILEERALILKLNNVAIANMVFNRETRSIDFFGIHPQYRNSDIAQVFLKKVIEDFLIDTDISITTFREGDKADTGHRDMIKKLGFAEAELLVEFGYPTQKFILPLS	not soluble
